{"source": "the supplement of paper PMC10567573", "parents": {"B1": {"name": "FAM189A2 (parent)", "chain": "GSEAAVIPLDLGCTQVTQDGDIPN"}}}
{"variants_of": "B1", "test": "protein stability index of a GFP-peptide fusion (GPS, HEK-293T) (PSI 1-6); higher = more stable", "conditions": "c terminus: a fixed tail appended"}
{"variant": "GSEAAVIPLDMGCTQVTQDGDIPN", "protein stability index": 5.31}
{"variant": "GSEAAVIPLDYGCTQVTQDGDIPN", "protein stability index": 5.7}
{"variant": "GSEAAVIPLDTGCTQVTQDGDIPN", "protein stability index": 5.44}
{"variant": "GSEAAVIPLDIGCTQVTQDGDIPN", "protein stability index": 5.11}
{"variant": "GSEAAVIPLDNGCTQVTQDGDIPN", "protein stability index": 5.24}
{"variant": "GSEAAVIPLDSGCTQVTQDGDIPN", "protein stability index": 5.54}
{"variant": "GSEAAVIPLDHGCTQVTQDGDIPN", "protein stability index": 5.75}
{"variant": "GSEAAVIPLDKGCTQVTQDGDIPN", "protein stability index": 5.6}
{"variant": "GSEAAVIPLDPGCTQVTQDGDIPN", "protein stability index": 5.45}
{"variant": "GSEAAVIPLDRGCTQVTQDGDIPN", "protein stability index": 5.72}
{"variant": "GSEAAVIPLDWGCTQVTQDGDIPN", "protein stability index": 5.38}
{"variant": "GSEAAVIPLDAGCTQVTQDGDIPN", "protein stability index": 5.54}
{"variant": "GSEAAVIPLDCGCTQVTQDGDIPN", "protein stability index": 5.25}
{"variant": "GSEAAVIPLDFGCTQVTQDGDIPN", "protein stability index": 5.39}
{"variant": "GSEAAVIPLDGGCTQVTQDGDIPN", "protein stability index": 5.6}
{"variant": "GSEAAVIPLDVGCTQVTQDGDIPN", "protein stability index": 5.65}
{"variant": "GSEAAVIPLDQGCTQVTQDGDIPN", "protein stability index": 5.33}
{"variant": "GSEAAVIPLDEGCTQVTQDGDIPN", "protein stability index": 5.02}
{"variant": "GSEAAVIPLDDGCTQVTQDGDIPN", "protein stability index": 5.77}
{"variant": "GSEAAVIPMDLGCTQVTQDGDIPN", "protein stability index": 5.6}
{"variant": "GSEAAVIPPDLGCTQVTQDGDIPN", "protein stability index": 5.46}
{"variant": "GSEAAVIPGDLGCTQVTQDGDIPN", "protein stability index": 5.85}
{"variant": "GSEAAVIPTDLGCTQVTQDGDIPN", "protein stability index": 5.5}
{"variant": "GSEAAVIPSDLGCTQVTQDGDIPN", "protein stability index": 5.7}
{"variant": "GSEAAVIPHDLGCTQVTQDGDIPN", "protein stability index": 5.47}
{"variant": "GSEAAVIPWDLGCTQVTQDGDIPN", "protein stability index": 4.67}
{"variant": "GSEAAVIPKDLGCTQVTQDGDIPN", "protein stability index": 5.46}
{"variant": "GSEAAVIPYDLGCTQVTQDGDIPN", "protein stability index": 5.31}
{"variant": "GSEAAVIPQDLGCTQVTQDGDIPN", "protein stability index": 5.69}
{"variant": "GSEAAVIPNDLGCTQVTQDGDIPN", "protein stability index": 5.55}
{"variant": "GSEAAVIPRDLGCTQVTQDGDIPN", "protein stability index": 5.22}
{"variant": "GSEAAVIPIDLGCTQVTQDGDIPN", "protein stability index": 5.15}
{"variant": "GSEAAVIPVDLGCTQVTQDGDIPN", "protein stability index": 5.42}
{"variant": "GSEAAVIPLDLGLTQVTQDGDIPN", "protein stability index": 5.46}
{"variant": "GSEAAVIPLDLGRTQVTQDGDIPN", "protein stability index": 5.33}
{"variant": "GSEAAVIPLDLGATQVTQDGDIPN", "protein stability index": 5.17}
{"variant": "GSEAAVIPLDLGHTQVTQDGDIPN", "protein stability index": 5.63}
{"variant": "GSEAAVIPLDLGFTQVTQDGDIPN", "protein stability index": 5.04}
{"variant": "GSEAAVIPLDLGNTQVTQDGDIPN", "protein stability index": 5.61}
{"variant": "GSEAAVIPLDLGSTQVTQDGDIPN", "protein stability index": 5.43}
{"variant": "GSEAAVIPLDLGVTQVTQDGDIPN", "protein stability index": 4.77}
{"variant": "GSEAAVIPLDLGETQVTQDGDIPN", "protein stability index": 5.54}
{"variant": "GSEAAVIPLDLGTTQVTQDGDIPN", "protein stability index": 5.48}
{"variant": "GSEAAVIPLDLGITQVTQDGDIPN", "protein stability index": 5.73}
{"variant": "GSEAAVIPLDLGDTQVTQDGDIPN", "protein stability index": 5.46}
{"variant": "GSEAAVIPLDLGGTQVTQDGDIPN", "protein stability index": 5.54}
{"variant": "GSEAAVIPLDLGQTQVTQDGDIPN", "protein stability index": 5.71}
{"variant": "GSEAAVIPLDLGPTQVTQDGDIPN", "protein stability index": 5.67}
{"variant": "GSEAAVIPLDLGMTQVTQDGDIPN", "protein stability index": 4.93}
{"variant": "GSEAAVIPLDLGKTQVTQDGDIPN", "protein stability index": 5.18}
{"variant": "GSEAAVIPLDLGYTQVTQDGDIPN", "protein stability index": 5.3}
{"variant": "GSEAAVIPLDLGWTQVTQDGDIPN", "protein stability index": 4.36}
{"variant": "GSEAAVIPLDLQCTQVTQDGDIPN", "protein stability index": 5.44}
{"variant": "GSEAAVIPLDLRCTQVTQDGDIPN", "protein stability index": 4.87}
{"variant": "GSEAAVIPLDLKCTQVTQDGDIPN", "protein stability index": 5.2}
{"variant": "GSEAAVIPLDLMCTQVTQDGDIPN", "protein stability index": 4.82}
{"variant": "GSEAAVIPLDLVCTQVTQDGDIPN", "protein stability index": 5.16}
{"variant": "GSEAAVIPLDLECTQVTQDGDIPN", "protein stability index": 4.86}
{"variant": "GSEAAVIPLDLACTQVTQDGDIPN", "protein stability index": 5.5}
{"variant": "GSEAAVIPLDLYCTQVTQDGDIPN", "protein stability index": 5.05}
{"variant": "GSEAAVIPLDLICTQVTQDGDIPN", "protein stability index": 4.96}
{"variant": "GSEAAVIPLDLFCTQVTQDGDIPN", "protein stability index": 4.76}
{"variant": "GSEAAVIPLDLPCTQVTQDGDIPN", "protein stability index": 5.52}
{"variant": "GSEAAVIPLDLTCTQVTQDGDIPN", "protein stability index": 5.38}
{"variant": "GSEAAVIPLDLCCTQVTQDGDIPN", "protein stability index": 4.6}
{"variant": "GSEAAVIPLDLLCTQVTQDGDIPN", "protein stability index": 4.93}
{"variant": "GSEAAVIPLDLNCTQVTQDGDIPN", "protein stability index": 5.09}
{"variant": "GSEAAVIPLDLWCTQVTQDGDIPN", "protein stability index": 4.62}
{"variant": "GSEAAVIPLDLSCTQVTQDGDIPN", "protein stability index": 4.37}
{"variant": "GSEAAVIPLDLDCTQVTQDGDIPN", "protein stability index": 5.61}
{"variant": "GSEAAVIPLDLHCTQVTQDGDIPN", "protein stability index": 4.87}
{"variant": "GSEAAVIPLDLGCAQVTQDGDIPN", "protein stability index": 5.29}
{"variant": "GSEAAVIPLDLGCCQVTQDGDIPN", "protein stability index": 4.97}
{"variant": "GSEAAVIPLDLGCEQVTQDGDIPN", "protein stability index": 5.51}
{"variant": "GSEAAVIPLDLGCDQVTQDGDIPN", "protein stability index": 5.25}
{"variant": "GSEAAVIPLKLGCTQVTQDGDIPN", "protein stability index": 4.85}
{"variant": "GSEAAVIPLYLGCTQVTQDGDIPN", "protein stability index": 4.39}
{"variant": "GSEAAVIPLTLGCTQVTQDGDIPN", "protein stability index": 5.34}
{"variant": "GSEAAVIPLRLGCTQVTQDGDIPN", "protein stability index": 5.07}
{"variant": "GSEAAVIPLPLGCTQVTQDGDIPN", "protein stability index": 5.26}
{"variant": "GSEAAVIPLNLGCTQVTQDGDIPN", "protein stability index": 5.14}
{"variant": "GSEAAVIPLVLGCTQVTQDGDIPN", "protein stability index": 4.48}
{"variant": "GSEAAVIPLFLGCTQVTQDGDIPN", "protein stability index": 3.9}
{"variant": "GSEAAVIPLQLGCTQVTQDGDIPN", "protein stability index": 4.92}
{"variant": "GSEAAVIPLSLGCTQVTQDGDIPN", "protein stability index": 5.15}
{"variant": "GSEAAVIPLLLGCTQVTQDGDIPN", "protein stability index": 4.2}
{"variant": "GSEAAVIPLILGCTQVTQDGDIPN", "protein stability index": 3.7}
{"variant": "GSEAAVIPLHLGCTQVTQDGDIPN", "protein stability index": 5.26}
{"variant": "GSEAAVIPLWLGCTQVTQDGDIPN", "protein stability index": 4.02}
{"variant": "GSEAAVIPLMLGCTQVTQDGDIPN", "protein stability index": 4.02}
{"variant": "GSEAAVIPLELGCTQVTQDGDIPN", "protein stability index": 5.18}
{"variant": "GSEAAVIPLALGCTQVTQDGDIPN", "protein stability index": 5.39}
{"variant": "GSEAAVIPLGLGCTQVTQDGDIPN", "protein stability index": 5.29}
{"variant": "GSEAAVIPLCLGCTQVTQDGDIPN", "protein stability index": 4.38}
